Measured values reported in the nanobody polyreactivity screen of Harvey et al. (2022).

Test: yeast display, Sf9 membrane polyspecificity reagent, FACS + sequencing; frameworks hold sequencing errors
Method in brief: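 A nanobody's polyreactivity label depends on the gate it was sorted from. Yeast display cells were stained with 10% biotinylated, detergent-solubilized Sf9 membrane reagent for 1 hour at 4 °C, enriched on streptavidin microbeads and sorted by FACS. The low and high (top ~1%) gates were set on anti-HA fluorescence for expression and streptavidin fluorescence for reagent binding.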

Sequence	polyreactivity (PSR sort gate)
QVQLVESGGGLVQAGGSLPLRCPASGSIFYQYAMGWYRQAPGKVRELVARIRGSTGTTYYADSVKGRFTISRDNAKNTVYLHMNSLKPEDTAVYYCNAARYQGRSRFDYWGQGSQVTVSS	high polyreactivity
QVQLVESGGGLVQAGGSLRLSCAASGFIISRNAMGWYRQAPGKERELVAAIRTRTGSTYYADSVKGRFTISRDNAKNTVYLQMNSLKPEDTAVYYCNAYPYVNGRYGSWGQGTQVTVSS	high polyreactivity
QVQLVESGGGLVQAGGRLRLSCAASGSISGYYAMGWYRQAPGKERELVASIRYTGARTYYADSVKGRFTISRDNAKNNVYLQMNSLKPEDTAVYYCAADVKRDRVWGGDYWGQGTQVTVSS	low polyreactivity
QVQIVESGGGLVQAGGSLRLSGAASGLIFKYYDMGWSRQAPGKERELVASISRSGGRTYYADSVMGRFTISRDNAMNTVYLQMNSLKPEDTAVYYCNADTWLYWDGDDYWGQGTQVTVSS	high polyreactivity
QVQLVESGGGLVQAGGSLRISCAASGPTFPLYAMGGNRQAPGKERELVAAIRTGGSTNYADSVKGRFTISRDNAKNTVYLQMNSLKPEDTAVSYCAAVQRTDRSAHYSWGHGTQVTVSS	low polyreactivity
QVQLVESGGGLVQAGGSLRLSCAASGFTYRVNAMGWYRQATGKERELVAAITVSDGRTYYADSVKGRFTISRDNAKNTVYLQMNSLKPEDTAVYYCAADYKGAFTTDWSSEYEYWGQGTQVTVSS	low polyreactivity
QVQLVESGGGLVQAGGSLRLSCAASGFSFTSNAMAWYRQAPGKERELVAAITTRGGSTYYADSVKGRFTLSRDNAKNTVDLPMNSLKPEDTSVYYCAARYSYWGLLRYDYWGQGTQVTVSS	high polyreactivity
QVQLVESGGGLVQAGGSLRLSCAASGFTFGSYAMGWYRQAPGKERELVAAISSRGGSTYYADSVKGRFTISRDNAKNTVYLQMNSLKPEDTAVYYCNAGYGYIKQYPDYQSKYDYWGQGTQVTVSS	low polyreactivity
QVQLVESGGGLVQAGGSLRLSCAASGSIFGRYAMGWYRQAPGKERELVADISWSGGRTYYADSVKGRFTISRDNAKNTVYLQMNSLKPEDTAVYYCNKVYRWFTRFDYWGQGTQLTVSS	high polyreactivity
QVQLVESGGGLVQAGGSLRLSCAASGITFYGYAMGWYRQAPGKERELVATISSGGSTNYADSVKGRFTISRDNAKNTVYLQMNSLKPEDTAVYYCNAAPDVNRDYEGSGDYWGQGSQVTVSS	low polyreactivity
QVQLVESGGGLVQAAGSLRLSCAASGFTFYSNVMGWYRQAPGKERELVAAITGRGSRTYYEDSVNGRFTISRDNAKNTVYLQMNSLKTEDTPVYYCAARYTNYGGYYWGQGTQVTVSS	high polyreactivity
QVQLVESGGGLVQAGGSLRLSCAASGGILSDYAMGWYRQAPGKERELVAAITISGGRTNYADSVKGRITISRDNAKITVYLQMNSLKPEDTAVSYCNKLPWSVRVYKPYDYWGEGTQVTVSS	low polyreactivity
QVQLVESGGGLVQAGGSLRLSCAASGFIYPYYAMGCYIQAPGKETELVAGISKSGGRTTYADSVKGRFTISRDNAKNTVYLQMNSLKPEDTAVYYCAAVYRAFPIYEDDYWGQGTQVTVSS	high polyreactivity
QLQIVESGGGLVQAGGSLRLTCAASGSTFPLYAMGWYSQAPGKEREFVAAIRWIGGSTYYADSVKGRFTISRDNAKNSVYLLMNSLKPEDTAVYYGAADYVVSAFDYWGQGTQVTVSS	low polyreactivity
QVQLVESGGGLVQAGGSLRLSCAASGLTFSPNAMGWYRQAPGKERELVAAITRSGSTTHYADSVKGRFTISRDNAKNTVYLQMNSLKPEDTAVYYCARRYYGPYDYWGQGTQVTVSS	high polyreactivity
QVQLVESGGGLVQAGGSLRLSCAASGLTFGDYTMGWYRQAPGKERELVAAITWSGASTYYADSVKGRFTISRDNAKNTVYLEMNSLKPEDTAGYYCAAERTPSYRAYDYWGQGTQVTVSS	low polyreactivity

Sequence	polyreactivity (PSR sort gate)
QVQLVESGGGVVQAGGSLRLSCAASGRTSYWYAKGCYRQAPGKERELVADISWSGGSTYYADSVKGRFTISRDNAKNTVYLQMNSMKPEDTAVYYCNAAEQKYSIYYAFDTGPYDYWGQGTQVTVSS	low polyreactivity
LVQHVQSGGGLVQAGGSLRVSCAASGPTLDSNAMGWYRQAPGKERELVAAISSAGSTNYPDSVKGRFTISRDNAKNTVYLQMNSLKPEDTAVYYSAADLIGSHDYWGQGTQVTVSS	low polyreactivity
QVQLVESGGGLVQSGGSLRLSCAASGSTFASNAMGWYRQAPGTEMELVAAISRSADSTYYADSVKGRFTISRDNAKNTVYLQMNSLKPEDTAVYYCAARHSRYRNPKYYYWGQGTQVTVSS	high polyreactivity
QVQLVESGAGLVQAGGSLRLSCAASGRTFWSNAMGWYRQAPGKEREFVAAIRSTVGSTYYADSVKGRFTISRDNAKNTVYLQMNSLNPEDTAVYYCYVSSGYYAYYYWGQGTQVTVSS	high polyreactivity
QVQLVESGGGLVQAGGRLRLSCAASGRTFKDYAMGWYRQAPGKERELVAGINGSGGSTYYADSVKGRFTISRDNAKNTVYLQMNSLKPEDTAVYYCNADFGYWWDGRRYDYWGQGTQVTVSS	low polyreactivity
QVQLVESGGGLVQAGGSLRLSCAASGSTFIYYAMGWYRQAPGKERELVAAISKRGGNTYYADSVKGRFTISRDNAKNTVYLQMNSLKPEDTAVYYCAARVYGTSRRYYSWGQGTQVTVSS	high polyreactivity
QVQLLESGGGLVQAGGSLRISCAASGSTFVSNAMGWYRQAPGKERELVAAISRSAGRTYYADSVKGRFTISRDTAKNTVYLQMTSLKPEDTAVYYCAARVVHCFGFWGQGTQVTVSS	high polyreactivity
QVQLQESGGGLVQAGGDLRLICAASGNIFRDYIMGWYRQAPGKEREFVAGIDRGANTNYADSVIGRFTISRDNAKNSVFLQMNSRKPEVTAVYYCAVHNAIGPDFIYWGQGTQVTVSS	low polyreactivity
QDQLVESAGGLVQAGGSLRLSCAASGRIFSRYAMGWYRQAPGKERELVAAITQSGTSTYYADSVKGRFTISRDIAKNTVYLQMNSLKAEDTAVYYCNAYSQYRYDYWGQGTQVTVSS	low polyreactivity
QVQLVESGGGLVQAGGSLRLSCAASGFTFRRYDMGWYRQAPGKERELVATINRGGSTDYADSVKGRFTISRDNAKNTVYLQMNSLKPEDTAVYYCATRYYSSRTWSEYYYWGQGTQVTVSS	high polyreactivity
QVQLVESGGGLVQAGGSLRLSCAASGRIFDGNTMGWYRQAPGKERELVAAISGGGSTDYADSVKGRFTISRDNAKNTVYLQMNSLKPEDTAVYYCAATTGPVPLKGDYWGQGTQVTVSS	low polyreactivity
QVQLLESGGGLVQAGGSLRLSCAASGSTFRWYAMGWYRQAPGRERELVAAITWSGGRTYYADSVKGRFTISRDNAKNTVYLQMNSLKPEYTAVYYCNAVYYHVVDFDYWGQGTQVTVSS	high polyreactivity
QVQLVESGGGLVQAGGSLRLSCAASGSTIKGYDMGWYRQAPGKERELVAAIDSGGSTYYADSVKGRFTISRDNAKNTVYLQMNSLKPEDTAVFYCAAERVSLYWVIFGYWGQGTQVTVSS	low polyreactivity
QVQLVESGGGLVQAGGSLRLSCAASGRIFTQYAMGWYRPAPGKERELVAAISSSGVRTYYADSVKGRFTISRDNAKNNVYLQMNSLKPEDTAVYYCAVRRGGAYYQFGYWGQGTQVTVSS	high polyreactivity
QVQLVESGGGLVQAGGSLRLSCAASGFTFRVNAMGWYRQAPGKERELVASITVSGGNTYYADSVKGRFTISRDNEKNTVYLLMNSLKPEDTAVYYCATDFSPVYYTRYDYWGQGTQVTVSS	low polyreactivity
QVQLVESGGGLVQAGGSLRLSCAASGSTFVYAMGWYRQAPGKERELVAAITTGDSTYYADSVKGRFTISRDNAKNTVYLQMNSLKPEDTAVYYCAAQWYTRYGEYGYWGQGTQVTVSS	low polyreactivity
